Source: patent US20150011462A1 (Novo Nordisk, published 2015)
Numbered stars: 1 amine (or outer) side, 2 acyl side, 3 side chain; on linkers, the order of the positions; unused ones are H or OH. Square brackets hold non-standard residues; d marks the D form. Side chains are listed from the residue outwards. Ends that are not written are not given here. * marks the point of attachment. C20 diacid = O=C(O)CCCCCCCCCCCCCCCCCCC(=O)*; C19 diacid = O=C(O)CCCCCCCCCCCCCCCCCC(=O)*; γGlu = O=C(O)[C@H](CCC(=O)[*:2])N[*:1]; Trx = NC[C@H]1CC[C@H](C(=O)O)CC1; AEEA = NCCOCCOCC(=O)O; Aib = CC(C)(N)C(=O)O

Legend:
[1] = molecular target: T1, human GLP-1 receptor (human, UniProt P43220 24-463); assay: cell-based or functional assay
[2] = molecular target: T1, human GLP-1 receptor; assay: competitive binding (SPA): displacement of 125I-GLP-1(7-36)NH2 from BHK cell membranes with human GLP-1 receptor; low HSA (max. 0.001% final)
Procedure: (§1) For the receptor binding assay in the presence of low HSA (0.005%) 50 μl of the assay buffer was added to each well of an assay plate. […] For the receptor binding assay in the presence of high HSA (2%) 50 μl of the 8% albumin stock was added to each well of an assay plate. […] Cell membrane aliquots were thawed and diluted to their working concentration. Fifty μl were added to each well in the assay plate. […] WGA SPA beads were suspended in assay buffer at 20 mg/ml. The suspension was diluted to 10 mg/ml in assay buffer just prior to addition to the assay plate. Fifty μl were added to each well in the assay plate. […] A 25 μl aliquot was reserved for measuring total counts/well. […] The assay plate was incubated for 2 h at 30° C. […] The assay plate was centrifuged for 10 min. […] The assay plate was read in a Packard TopCount NXT instrument.

[3] = molecular target: T1, human GLP-1 receptor; assay: competitive binding (SPA): displacement of 125I-GLP-1(7-36)NH2 from BHK cell membranes with human GLP-1 receptor; high HSA (2.0% final)
Procedure: as §1

B1: N{Alpha}([Aib8,Glu22,Arg26,Arg34]-GLP-1-(7-37)-peptidyl)-N{Epsilon}[2-[2-[2-[[2-[2-[2-[[(4S)-4-carboxy-4-[[4-[(18-carboxyoctadecanoylamino)methyl]cyclohexanecar … (peptide)
peptide: H[Aib]EGTFTSDVSSYLEEQAAREFIAWLVRGRGK([AEEA-AEEA-γGlu-Trx-C19 diacid])GGSK([AEEA-AEEA-γGlu-Trx-C19 diacid])
notes: Double-acylated, C-terminally extended GLP-1 analogue made by SPPS; also called 26
EC50 (pM), in vitro potency, CRE luciferase reporter gene assay in BHK cells expressing the human GLP-1 receptor [1]: 13 pM | IC50 [2]: 0.88 nM | IC50 [3]: 202 nM

B2: N{Alpha}([Aib8,Glu22,Arg26,Arg34]-GLP-1-(7-37)-peptidyl)-N{Epsilon}[2-[2-[2-[[2-[2-[2-[[(4S)-4-carboxy-4-[[4-[(19-carboxynonadecanoylamino)methyl]cyclohexanecar … (peptide)
peptide: H[Aib]EGTFTSDVSSYLEEQAAREFIAWLVRGRGK([AEEA-AEEA-γGlu-Trx-C20 diacid])GGSK([AEEA-AEEA-γGlu-Trx-C20 diacid])
notes: Double-acylated, C-terminally extended GLP-1 analogue made by SPPS
EC50 (pM), in vitro potency, CRE luciferase reporter gene assay in BHK cells expressing the human GLP-1 receptor [1]: 43 pM | IC50 [2]: 1.2 nM | IC50 [3]: 185 nM

B3: N{Epsilon-23}-[2-[2-[2-[[2-[2-[2-[[(4S)-4-carboxy-4-[[4-[(19-carboxynonadecanoylamino)methyl]cyclohexanecarbonyl]amino]butanoyl]amino]ethoxy]ethoxy]acetyl]amino … (peptide)
peptide: H[Aib]EGTFTSDVSSYLEEK([AEEA-AEEA-γGlu-Trx-C20 diacid])AAREFIAWLVRGRGGGGSK([AEEA-AEEA-γGlu-Trx-C20 diacid])
notes: as for B2
EC50 (pM), in vitro potency, CRE luciferase reporter gene assay in BHK cells expressing the human GLP-1 receptor [1]: 74 pM | IC50 [2]: 0.85 nM | IC50 [3]: 113 nM

B4: N{Epsilon-18}-[2-[2-[2-[[2-[2-[2-[[(4S)-4-carboxy-4-[[4-[(19-carboxynonadecanoylamino)methyl]cyclohexanecarbonyl]amino]butanoyl]amino]ethoxy]ethoxy]acetyl]amino … (peptide)
peptide: H[Aib]EGTFTSDVSK([AEEA-AEEA-γGlu-Trx-C20 diacid])YLEEQAAREFIAWLVRGRGGGGSK([AEEA-AEEA-γGlu-Trx-C20 diacid])
notes: as for B2
EC50 (pM), in vitro potency, CRE luciferase reporter gene assay in BHK cells expressing the human GLP-1 receptor [1]: 93 pM | IC50 [2]: 1 nM | IC50 [3]: ≥ 1000 nM

B5: N{Epsilon-36}-[2-[2-[2-[[2-[2-[2-[[(4S)-4-carboxy-4-[[4-[(19-carboxynonadecanoylamino)methyl]cyclohexanecarbonyl]amino]butanoyl]amino]ethoxy]ethoxy]acetyl]amino … (peptide)
peptide: H[Aib]EGTFTSDVSSYLEEQAAREFIAWLVRGK([AEEA-AEEA-γGlu-Trx-C20 diacid])GEGPAK([AEEA-AEEA-γGlu-Trx-C20 diacid])
notes: Double-acylated, C-terminally extended GLP-1 analogue made by SPPS; also called 16
EC50 (pM), in vitro potency, CRE luciferase reporter gene assay in BHK cells expressing the human GLP-1 receptor [1]: 25 pM | IC50 [2]: 1.4 nM | IC50 [3]: 602 nM

B6: N{Epsilon-36}-[2-[2-[2-[[2-[2-[2-[[(4S)-4-carboxy-4-[[4-[(19-carboxynonadecanoylamino)methyl]cyclohexanecarbonyl]amino]butanoyl]amino]ethoxy]ethoxy]acetyl]amino … (peptide)
peptide: H[Aib]EGTFTSDVSSYLEEQAAREFIAWLVRGK([AEEA-AEEA-γGlu-Trx-C20 diacid])GGGGSK([AEEA-AEEA-γGlu-Trx-C20 diacid])
notes: as for B2
EC50 (pM), in vitro potency, CRE luciferase reporter gene assay in BHK cells expressing the human GLP-1 receptor [1]: 61 pM | IC50 [2]: 1.1 nM | IC50 [3]: 101 nM

B7: N{Epsilon-31}-[2-[2-[2-[[2-[2-[2-[[(4S)-4-carboxy-4-[[4-[(19-carboxynonadecanoylamino)methyl]cyclohexanecarbonyl]amino]butanoyl]amino]ethoxy]ethoxy]acetyl]amino … (peptide)
peptide: H[Aib]EGTFTSDVSSYLEEQAAREFIAK([AEEA-AEEA-γGlu-Trx-C20 diacid])LVRGRGGGGSK([AEEA-AEEA-γGlu-Trx-C20 diacid])
notes: as for B2
EC50 (pM), in vitro potency, CRE luciferase reporter gene assay in BHK cells expressing the human GLP-1 receptor [1]: 36 pM | IC50 [2]: 1.4 nM | IC50 [3]: ≥ 1000 nM

B8: N{Epsilon-27}-[2-[2-[2-[[2-[2-[2-[[(4S)-4-carboxy-4-[[4-[(19-carboxynonadecanoylamino)methyl]cyclohexanecarbonyl]amino]butanoyl]amino]ethoxy]ethoxy]acetyl]amino … (peptide)
peptide: H[Aib]EGTFTSDVSSYLEEQAARK([AEEA-AEEA-γGlu-Trx-C20 diacid])FIAWLVRGRGGGGSK([AEEA-AEEA-γGlu-Trx-C20 diacid])
notes: as for B2
EC50 (pM), in vitro potency, CRE luciferase reporter gene assay in BHK cells expressing the human GLP-1 receptor [1]: 55 pM | IC50 [2]: 0.75 nM | IC50 [3]: 275 nM

B9: N{Alpha}([Aib8,Glu22,Arg26,Arg34]-GLP-1-(7-37)-peptidyl)-N{Epsilon}[2-[2-[2-[[2-[2-[2-[[(4S)-4-carboxy-4-[[4-[(19-carboxynonadecanoylamino)methyl]cyclohexanecar … (peptide)
peptide: H[Aib]EGTFTSDVSSYLEEQAAREFIAWLVRGRGK([AEEA-AEEA-γGlu-Trx-C20 diacid])SPEK([AEEA-AEEA-γGlu-Trx-C20 diacid])
notes: Double-acylated, C-terminally extended GLP-1 analogue made by SPPS; also called 11
EC50 (pM), in vitro potency, CRE luciferase reporter gene assay in BHK cells expressing the human GLP-1 receptor [1]: 27 pM | IC50 [2]: 1.5 nM | IC50 [3]: 116 nM

B10: N{Alpha}([Aib8,Glu22,Arg26,Arg34]-GLP-1-(7-37)-peptidyl)-N{Epsilon}[2-[2-[2-[[2-[2-[2-[[(4S)-4-carboxy-4-[[4-[(19-carboxynonadecanoylamino)methyl]cyclohexanecar … (peptide)
peptide: H[Aib]EGTFTSDVSSYLEEQAAREFIAWLVRGRGK([AEEA-AEEA-γGlu-Trx-C20 diacid])PEGK([AEEA-AEEA-γGlu-Trx-C20 diacid])
notes: Double-acylated, C-terminally extended GLP-1 analogue made by SPPS; also called 12
EC50 (pM), in vitro potency, CRE luciferase reporter gene assay in BHK cells expressing the human GLP-1 receptor [1]: 24 pM | IC50 [2]: 1.4 nM | IC50 [3]: 212 nM

B11: N{Epsilon-27}-[(2S)-2-amino-6-[[(2S)-2-amino-6-[[(4S)-4-carboxy-4-(19-carboxynonadecanoylamino)butanoyl]amino]hexanoyl]amino]hexanoyl]-[Aib8,Glu22,Arg26,Lys27,A … (peptide)
peptide: H[Aib]EGTFTSDVSSYLEEQAARKFIAWLVRGRGGGGSK
modifications: not fully specified (residues 21, 36)
notes: Double-acylated, C-terminally extended GLP-1 analogue made by SPPS; The printed name has a typographic slip ('R2S)' for '[(2S)')
EC50 (pM), in vitro potency, CRE luciferase reporter gene assay in BHK cells expressing the human GLP-1 receptor [1]: 260 pM | IC50 [2]: 0.43 nM | IC50 [3]: 383 nM

B12: N{Alpha}([Aib8,Glu22,Arg26,Arg34]-GLP-1-(7-37)-peptidyl)-N{Epsilon}[2-[2-[2-[[2-[2-[2-[[(4S)-4-carboxy-4-[[4-[(19-carboxynonadecanoylamino)methyl]cyclohexanecar … (peptide)
peptide: H[Aib]EGTFTSDVSSYLEEQAAREFIAWLVRGRGK([AEEA-AEEA-γGlu-Trx-C20 diacid])SAEK([AEEA-AEEA-γGlu-Trx-C20 diacid])
notes: Double-acylated, C-terminally extended GLP-1 analogue made by SPPS; also called 13
EC50 (pM), in vitro potency, CRE luciferase reporter gene assay in BHK cells expressing the human GLP-1 receptor [1]: 24 pM | IC50 [2]: 1.4 nM | IC50 [3]: 160 nM

B13: N{Alpha}([Aib8,Glu22,Arg26,Arg34]-GLP-1-(7-37)-peptidyl)-N{Epsilon}[2-[2-[2-[[2-[2-[2-[[2-[2-[2-[[2-[2-[2-[[(4S)-4-carboxy-4-[[4-[(19-carboxynonadecanoylamino)m … (peptide)
peptide: H[Aib]EGTFTSDVSSYLEEQAAREFIAWLVRGRGK([AEEA-AEEA-AEEA-AEEA-γGlu-Trx-C20 diacid])GGSK([AEEA-AEEA-AEEA-AEEA-γGlu-Trx-C20 diacid])
notes: Double-acylated, C-terminally extended GLP-1 analogue made by SPPS; also called 17
EC50 (pM), in vitro potency, CRE luciferase reporter gene assay in BHK cells expressing the human GLP-1 receptor [1]: 12 pM | IC50 [2]: 1.8 nM | IC50 [3]: 99 nM
